# B1: YJR076C (protein, UniProt P32458 2-415, looked up)
# Cell division control protein …: SGIIDASSALRKRKHLKRGITFTVMIVGQSGSGRSTFINTLCGQQVVDTSTTILLPTDTSTEIDLQLREETVELEDDEGVKIQLNIIDTPGFGDSLDNSPSFEIISDYIRHQYDEILLEESRVRRNPRFKDGRVHCCLYLINPTGHGLKEIDVEFIRQLGSLVNIIPVISKSDSLTRDELKLNKKLIMEDIDRWNLPIYNFPFDEDEISDEDYETNMYLRTLLPFAIIGSNEVYEMGGDVGTIRGRKYPWGILDVEDSSISDFVILRNALLISHLHDLKNYTHEILYERYRTEALSGESVAAESIRPNLTKLNGSSSSSTTTRRNTNPFKQSNNINNDVLNPASDMHGQSTGENNETYMTREEQIRLEEERLKAFEERVQQELLLKRQELLQREKELREIEARLEKEAKIKQEE
# B2: YLR314C (protein, UniProt P32457 2-520, looked up)
# Cell division control protein …: SLKEEQVSIKQDPEQEERQHDQFNDVQIKQESQDHDGVDSQYTNGTQNDDSERFEAAESDVKVEPGLGMGITSSQSEKGQVLPDQPEIKFIRRQINGYVGFANLPKQWHRRSIKNGFSFNLLCVGPDGIGKTTLMKTLFNNDDIEANLVKDYEEELANDQEEEEGQGEGHENQSQEQRHKVKIKSYESVIEENGVKLNLNVIDTEGFGDFLNNDQKSWDPIIKEIDSRFDQYLDAENKINRHSINDKRIHACLYFIEPTGHYLKPLDLKFMQSVYEKCNLIPVIAKSDILTDEEILSFKKTIMNQLIQSNIELFKPPIYSNDDAENSHLSERLFSSLPYAVIGSNDIVENYSGNQVRGRSYPWGVIEVDNDNHSDFNLLKNLLIKQFMEELKERTSKILYENYRSSKLAKLGIKQDNSVFKEFDPISKQQEEKTLHEAKLAKLEIEMKTVFQQKVSEKEKKLQKSETELFARHKEMKEKLTKQLKALEDKKKQLELSINSASPNVNHSPVPTKKKGFLR
# B3: YDL225W (protein, UniProt Q07657 2-551, looked up)
# Seventh homolog of septin 1: STASTPPINLFRRKKEHKRGITYTMLLCGPAGTGKTAFANNLLETKIFPHKYQYGKSNASISSNPEVKVIAPTKVVSFNSKNGIPSYVSEFDPMRANLEPGITITSTSLELGGNKDQGKPEMNEDDTVFFNLIMTHGIGENLDDSLCSEEVMSYLEQQFDIVLAEETRIKRNPRFEDTRVHVALYFIEPTGHGLREVDVELMKSISKYTNVLPIITRADSFTKEELTQFRKNIMFDVERYNVPIYKFEVDPEDDDLESMEENQALASLQPFAIITSDTRDSEGRYVREYPWGIISIDDDKISDLKVLKNVLFGSHLQEFKDTTQNLLYENYRSEKLSSVANAEEIGPNSTKRQSNAPSLSNFASLISTGQFNSSQTLANNLRADTPRNQVSGNFKENEYEDNGEHDSAENEQEMSPVRQLGREIKQENENLIRSIKTESSPKFLNSPDLPERTKLRNISETVPYVLRHERILARQQKLEELEAQSAKELQKRIQELERKAHELKLREKLINQNKLNGSSSSINSLQQSTRSQIKKNDTYTDLASIASGRD
# B4: YER008C (protein, UniProt P33332 1-1336, looked up)
# Exocyst complex component SEC3: MRSSKSPFKRKSHSRETSHDENTSFFHKRTISGSSAHHSRNVSQGAVPSSAPPVSGGNYSHKRNVSRASNSSQTSNFLAEQYERDRKAIINCCFSRPDHKTGEPPNNYITHVRIIEDSKFPSSRPPPDSKLENKKKRLLILSAKPNNAKLIQIHKARENSDGSFQIGRTWQLTELVRVEKDLEISEGFILTMSKKYYWETNSAKERTVFIKSLITLYIQTFEGHVPELVNWDLSLFYLDERSYQRAVITNRPGSVSPIKSPTSNFTTNTTQSVGSVPFSAPTERTRRSETESVNPVSTPASVEYHAGMKSLNKAPYSSNSTLNEVNKRYELEQQQQQEEAELRRLEEQKRLQLQKENEMKRLEEERRIKQEERKRQMELEHQRQLEEEERKRQMELEAKKQMELKRQRQFEEEQRLKKERELLEIQRKQREQETAERLKKEEQEALAKKEEEEKSKRNKVDNESYTQEINGKVDNLLEDLNAVLAEETETTPTMQNGTYVPERSTARAHDQLKKPLNIAKVESLGGSDLNDSISLSDEIAGLNTSNLSGEDQDEKNDLSFEKGDEVRYSNNFEGEAPHVYHEVSIIQEEAPAVSQKLILPEENNESEALIESKEEIKTMENIDDEVLLEILTDINWSIEDDADSMIERIDLRLAETEYLFNQNLLSLQKIGPNIRPYEDKVNDECHRIIPTLSLFLMEMSNFSNDIENVESQDNGLQVESANKKLLWNTLDELLKTVSLDEISLNQLLECPIREKNLPWMENQLNLLLKAFQAIGSDGNEVEYNLREISGLKQRLQFYEKVTKIFLNRIVEEMQKKFSNIRGQDISHDQMIRILTTLLIFSPLILFCKEISQKSYQAIVENWNVSIQPVYMELWTKKISQLQGIDTNDEKMNELSLSQLLNEWDTFRKERKTNDINPVFKNSFSLLTECLQTMRQECIVYQNFVEVFFHISSKHNFEEYIKHFNDPDAPPILLDTVKVMQSDREAAVIETQLVSRIFQPIVTRLSSYFVELVKAEPTVAPALTFYLENEIKSLESSNHEFLLSAVTRMYTQIKQVWSDNVEEQVLHFERISNATTNGEILPGILDLPVGLKNSEDLFQFAKRSMDIKDTDEGYESIELMNSSFRKLSIAATRSITHKEVNSSINPNLSDTAALNNDYMETISLLVNSNWLTEMLSMLNFNKDGIFDTSLQNVKKVFDVEKESYASFLLRDTMPKLTAFVYGVSNIIENTNNVNMTNPSRWAAYSRQNLENILLAYTSHEIETLVKRLHTHMVNDFGYHQENAINNVLCDKLWSCIQGQTVSLYLKLYTVIDKHYRGTNIRFTKNDIISAFEEYKNA
# B5: YBR102C (protein, UniProt P38261 1-753, looked up)
# Exocyst complex component …: MVEFSLKKARNNWKHVKKSASSPAKQKTPPSPAKPKQKTKKNPYSDLKDPATSYTLPTINARERSRVATSMQRRLSIHNTNYAPPTLDYSMPLPDMPNMIVPNDNVDSSHNNSSFTTENESVSSKGPSNSLNLSTADLSLNDSSYNKVPARSAMRNTVNPSGSNDPFNNSTSLRKMLANPHFNAKDFVHDKLGNASAITIDKFTSNLTDLSIQVQEEVKLNINKSYNEIMTVNNDLNVAMLELKRVRANINDLNEVLDQCTKIAEKRLQLQDQIDQERQGNFNNVESHSNSPALLPPLKAGQNGNLMRRDRSSVLILEKFWDTELDQLFKNVEGAQKFINSTKGRHILMNSANWMELNTTTGKPLQMVQIFILNDLVLIADKSRDKQNDFIVSQCYPLKDVTVTQEEFSTKRLLFKFSNSNSSLYECRDADECSRLLDVIRKAKDDLCDIFHVEEENSKRIRESFRYLQSTQQTPGRENNRSPNKNKRRSMGGSITPGRNVTGAMDQYLLQNLTLSMHSRPRSRDMSSTAQRLKFLDEGVEEIDIELARLRFESAVETLLDIESQLEDLSERISDEELMLLNLISLKIEQRREAISSKLSQSILSSNEIVHLKSGTENMIKLGLPEQALDLFLQNRSNFIQDLILQIGSVDNPTNYLTQLAVIRFQTIKKTVEDFQDIFKELGAKISSILVDWCSDEVDNHFKLIDKQLLNDEMLSPGSIKSSRKQIDGLKAVGLDFVYKLDEFIKKNSDKIR
# B6: YPR055W (protein, UniProt P32855 1-1065, looked up)
# Exocyst complex component SEC8: MDYLKPAQKGRRRGLSINSLSETQQSAMNSSLDHLQNDLNRINLQWNRILSDNTNPLELALAFLDDTSVGLGHRYEEFNQLKSQIGSHLQDVVNEHSQVFNTNVASYGKAVSSIMQAQEQTLNLKNCLKEANEKITTDKGSLQELNDNNLKYTKMIDVLVNIEELLQIPEKIEENIRKENFHQVQILLERGFILMNNKSLKTVEILKPINQQLELQEHLLFNNLIEEIHDIMYSKSNKTNFTRVTNNDIFKIISISHNGFTSLENYLYNIVNIDIMEHSKTINKNLEQFIHDQSLNKGNIMLQENAATQAPLAPSRNQENEGFNRIGFLLKTINNINKLPVAFNIITERAKEEIHNIIVKSTESIRSKHPSLLKMATSLKNDNHFGLPVQDILSIILRECFWEIFLKLLYAIQCHRAIFEMSNILQPTSSAKPAFKFNKIWGKLLDEIELLLVRYINDPELISSNNGSIKPINGATNNAPTLPKRKNPKIFSLEYNIEDNSSVKDQAFELKALLKDIFPGFSVSSNMDLDSIYVKDESFEQDEPLVPPSVFNMKVILDPFLLFTQSTSTIVPSVLTQNTISSLTFFDDYMNKSFLPKIQMTMDYLFTVEVESNNPYALELSDENHNIFKTALDFQRLFYNLLNVFNTANTFREKISYCILDLLNHFYNYYLGLFNSLIGTSDRHLTRKIITAWLQNGILMDQEQKILNGDETLFHEESIELFKEIPHFYQAGKGLSKSDLFNNLTLDTILQFSASVLWILNWLPGLKKAINIDEVSQEPMLDADRLRSSWTFSESMDLNYSNPSSSPNSLGNLKILLDDKASKKFDETIDGFKTLKFKLITILRFNIRALCIYDIGSFFQNTKIWNMDVGSIELDQNIASLISELRRTESKLKQQLPEKEKNSIFIGLDIVNNYALIKGAKSIKVLNHNGIKKMLRNVNVLQHAYRNLSSEPSKINMNVTMNFYSLCGSSEAELFEYIKDNELPHCSVEDLKTILRLQFSEEMHRQLKRQSTSSTKGSIKPSNKRYTEALEKLSNLEKEQSKEGARTKIGKLKSKLNAVHTANEK
# Tests used:
# Type in all cases: cell-based, Saccharomyces cerevisiae
# ABP1 = experiment: DHFR-PCA on solid medium, bait ABP1 (Fig. 1B); details: bait ABP1, label = prey; for medrep (log2 median colony size normalized to plate background, PCA score): 2-4 replicates; for Ratio (SH3-deleted/WT medrep): only significant differences showed, PPIs completely lost have a ratio of 0.1 and the gained PPIs 2.5
# Text: (§1) Supplement 41467_2021_21873_MOESM8_ESM.xlsx, sheet "Fig1B" | column: medsize; medrep; Ratio; Score
# BEM1-1 = experiment: DHFR-PCA on solid medium, bait BEM1-1 (Fig. 1B); details: bait BEM1-1, label = prey; for medrep (log2 median colony size normalized to plate background, PCA score): 2-8 replicates; for Ratio (SH3-deleted/WT medrep): only significant differences showed, PPIs completely lost have a ratio of 0.1 and the gained PPIs 2.5
# Text: as §1
# BEM1-2 = experiment: DHFR-PCA on solid medium, bait BEM1-2 (Fig. 1B); details: bait BEM1-2, label = prey; for medrep (log2 median colony size normalized to plate background, PCA score): 2-8 replicates; for Ratio (SH3-deleted/WT medrep): only significant differences showed, PPIs completely lost have a ratio of 0.1 and the gained PPIs 2.5
# Text: as §1
Molecule,"medrep (log2 median colony size normalized to plate background, PCA score) (ABP1)",Ratio (SH3-deleted/WT medrep) (ABP1),"medrep (log2 median colony size normalized to plate background, PCA score) (BEM1-1)","medrep (log2 median colony size normalized to plate background, PCA score) (BEM1-2)",Ratio (SH3-deleted/WT medrep) (BEM1-2),Ratio (SH3-deleted/WT medrep) (BEM1-1)
B1,2.021,1.374,3.2032,1.843,0.5753,–
B2,4.381,–,3.511,1.7566,0.5003,–
B3,2.276,–,2.78,2.78,0.1,–
B4,1.509,2.5,1.89,1.89,0.1,0.1
B5,–,–,1.504,1.504,0.1,0.1
B6,1.475,0.1,1.322,1.322,0.1,0.1
